B1: LINE1-mini (parent)
chain: GGCAGAGCUCAACACAGCGUGGCAAAGUGGCUGUGGCUAGACUGCC

Variants of: B1
Assay: self-cleavage, relative activity (ratio to wild type); higher = more cleavage; in vitro, sequencing; the parent is a self-cleaving ribozyme

Variant	self-cleavage
U32A A41U	0.13
U32A A41C	0.07
U32A A41G	0.04
C31G U38C	0.07
C31G U38A	0.09
C31G U38G	0.03
C31U A41U	0.16
C31U A41C	0.06
C31U A41G	0.04
U32A G33A	0.08
U32A G33C	0.08
U32A G33U	0.07
C31G G40C	0.05
C31G G40A	0.05
C31G G40U	0.03
C31U A39G	0.05
C31U A39C	0.12
C31U A39U	0.13
C31U C46U	0.23
C31U C46G	0.08
C31U C46A	0.15
G30C C42U	0.18
G30C C42A	0.12
G30C C42G	0.04

Variant	self-cleavage
G30U C37A	0.08
G30U C37G	0.05
G30U C37U	0.05
G30C G40A	0.13
G30C G40C	0.18
G30C G40U	0.16
G30U A41U	0.64
G30U A41G	0.35
G30U A41C	0.06
G30C C31U	1.32
G30C C31G	0.44
G30C C31A	0.75
C31A C37G	0.07
C31A C37U	0.09
C31A C37A	0.08
U32A C45A	0.11
U32A C45U	0.07
U32A C45G	0.07
C31A G36A	0.11
C31A G36U	0.12
C31A G36C	0.13
U32C G35A	0.06
U32C G35U	0.12
U32C G35C	0.08

Variant	self-cleavage
C31A G44C	0.04
C31A G44U	0.04
C31A G44A	0.06
G30C A41C	0.05
G30C A41G	0.21
G30C A41U	0.73
G30C U38A	0.75
G30C U38G	0.03
G30C U38C	0.49
U32G A41G	0.08
U32G A41C	0.05
U32G A41U	0.07
C31G G44A	0.05
C31G G44C	0.05
C31G G44U	0.05
C31U G44A	0.04
C31U G44C	0.07
C31U G44U	0.05
C31G G33A	0.05
C31G G33C	0.03
C31G G33U	0.06
C31U G36C	0.07
C31U G36U	0.06
C31U G36A	0.12

Variant	self-cleavage
U32C A41C	0.09
U32C A41G	0.07
U32C A41U	0.2
C31A G35A	0.04
C31A G35C	0.04
C31A G35U	0.06
U32G	0.19
U32C	0.2
U32A	0.1
U32G A39C	0.09
U32G A39U	0.1
U32G A39G	0.8
C31G C37A	0.09
C31G C37G	0.04
C31G C37U	0.05
U32C U34A	0.05
U32C U34G	0.08
U32C U34C	0.16
G30U G33U	0.08
G30U G33A	0.08
G30U G33C	0.11
C31A C45U	0.13
C31A C45G	0.06
C31A C45A	0.05

Variant	self-cleavage
U32A U43A	0.08
U32A U43G	0.11
U32A U43C	0.04
G30U U34A	0.05
G30U U34C	0.05
G30U U34G	0.09
C31U U34C	0.12
C31U U34G	0.04
C31U U34A	0.06
G30U G36C	0.11
G30U G36U	0.05
G30U G36A	0.19
G30U C42G	0.05
G30U C42A	0.12
G30U C42U	0.32
G30C G35C	0.09
G30C G35A	0.09
G30C G35U	0.19
U32A A39U	0.06
U32A A39C	0.06
U32A A39G	0.05
G30C C45G	0.21
G30C C45A	0.33
G30C C45U	0.88

Variant	self-cleavage
U32C A39C	0.08
U32C A39G	0.07
U32C A39U	0.15
U32A G35A	0.04
U32A G35U	0.05
U32A G35C	0.08
G30U G44U	0.21
G30U G44C	0.16
G30U G44A	0.42
G30C G36C	0.06
G30C G36U	0.11
G30C G36A	0.1
U32G C42G	0.14
U32G C42A	0.04
G30C C46A	0.45
G30C C46U	1.09
G30C C46G	0.59
C31G G36U	0.05
C31G G36A	0.1
C31G G36C	0.04
C31A A39C	0.05
C31A A39U	0.11
C31A A39G	0.05
G30U G35U	0.08

Variant	self-cleavage
G30U G35A	0.05
G30U G35C	0.07
C31A U34G	0.02
C31A U34A	0.05
C31A U34C	0.06
G30U C31G	0.06
G30U C31U	0.07
G30U C31A	0.19
U32C C37A	0.15
U32C C37U	0.07
U32C C37G	0.06
U32A G36C	0.11
U32A G36U	0.05
U32A G36A	0.06
C31G U34C	0.14
C31G U34A	0.03
C31G U34G	0.04
C31G G35C	0.05
C31G G35A	0.04
C31G G35U	0.03
U32C C46U	0.2
U32C C46G	0.1
U32C C46A	0.16
C31U C42G	0.04

Variant	self-cleavage
C31U C42U	0.09
C31U C42A	0.09
U32A G44C	0.07
U32A G44A	0.23
U32A G44U	0.06
U32C C45U	0.12
U32C C45A	0.2
U32C C45G	0.03
U32A C37A	0.04
U32A C37U	0.08
U32A C37G	0.08
G30C	1.63
G30U	1.62
U32G C37G	0.04
U32G C37U	0.07
U32G C37A	0.09
C31A U43C	0.05
C31A U43G	0.15
C31A U43A	0.08
G30U C46G	1.29
G30U C46U	1.24
G30U C46A	1.42
U32A U38A	0.09
U32A U38G	0.02

Variant	self-cleavage
U32A U38C	0.07
C31A G40A	0.04
C31A G40U	0.05
C31A G40C	0.04
G30C G33C	0.03
G30C G33A	0.06
G30C G33U	0.07
U32C G40C	0.03
U32C G40U	0.07
U32C G40A	0.06
C31U U38C	0.14
C31U U38A	0.2
C31U U38G	0.05
C31A	0.15
C31G	0.1
C31U	0.26
C31G U43C	0.05
C31G U43G	0.05
C31G U43A	0.13
G30U C45A	0.49
G30U C45G	0.29
G30U C45U	1.11
C31U G35C	0.04
C31U G35U	0.07

Variant	self-cleavage
C31U G35A	0.03
U32A C42U	0.05
U32A C42A	0.05
U32A C42G	0.06
U32C G33U	0.13
U32C G33A	0.05
U32C G33C	0.04
U32A G40C	0.08
U32A G40U	0.16
U32A G40A	0.06
U32A C46G	0.28
U32A C46A	0.08
U32A C46U	0.1
C31U U32G	0.06
C31U U32A	0.09
C31U U32C	0.08
G30C A39G	0.12
G30C A39U	2.23
G30C A39C	0.26
G30C U32A	0.26
G30C U32G	0.3
G30C U32C	0.09
U32C G36U	0.06
U32C G36C	0.04

Variant	self-cleavage
U32C G36A	0.08
C31A A41C	0.03
C31A A41G	0.08
C31A A41U	0.09
G30U A39G	0.09
G30U A39C	0.19
G30U A39U	0.87
G30U U32C	0.23
G30U U32G	0.08
G30U U32A	0.13
C31G U32G	0.08
C31G U32C	0.08
C31G U32A	0.05
U32C U38C	0.06
U32C U38G	0.01
U32C U38A	0.37
G30C U43C	0.25
G30C U43A	0.06
G30C U43G	0.02
C31G C45A	0.04
C31G C45G	0.04
C31G C45U	0.08
U32A U34G	0.03
U32A U34A	0.05

Variant	self-cleavage
U32A U34C	0.15
U32C U43C	0.05
U32C U43G	0.13
U32C U43A	0.05
C31A C46G	0.11
C31A C46A	0.13
C31A C46U	0.11
C31A U38G	0.03
C31A U38A	0.12
C31A U38C	0.16
U32C C42G	0.1
U32C C42U	0.22
U32C C42A	0.12
G30U U43G	0.2
G30U U43A	0.11
G30U U43C	0.1
U32C G44U	0.07
U32C G44A	0.07
U32C G44C	0.09
C31U C37G	0.05
C31U C37A	0.09
C31U C37U	0.07
G30U G40A	0.08
G30U G40C	0.09

Variant	self-cleavage
G30U G40U	0.13
C31G A41U	0.09
C31G A41G	0.03
C31G A41C	0.05
C31U G40U	0.04
C31U G40A	0.04
C31U G40C	0.03
C31A G33U	0.08
C31A G33A	0.06
C31A G33C	0.1
C31U G33A	0.09
C31U G33C	0.15
C31U G33U	0.06
G30C C37G	0.07
G30C C37U	0.1
G30C C37A	0.07
G30U U38C	1.12
G30U U38G	0.03
G30U U38A	1
C31G C46U	0.07
C31G C46G	0.04
C31G C46A	0.06
C31A U32C	0.07
C31A U32A	0.05

Variant	self-cleavage
C31A U32G	0.05
G30C U34G	0.1
G30C U34A	0.12
G30C U34C	0.12
C31A C42A	0.04
C31A C42U	0.05
C31A C42G	0.05
C31U U43G	0.02
C31U U43C	0.06
C31U U43A	0.06
C31U C45G	0.1
C31U C45A	0.13
C31U C45U	0.18
C31G A39C	0.12
C31G A39U	0.06
C31G A39G	0.03
C31G C42U	0.09
C31G C42A	0.05
C31G C42G	0.06
G30C G44U	0.09
G30C G44C	0.27
G30C G44A	0.2

From the RNAGym collection of RNA variant scans (doi:10.7554/elife.90254)
